Laboratory results published in US20110311515A1.

Substrate: F protein of RSV (hRSV strain Long LM-2) (hRSV strain Long) (UniProt P12568)
Experiment: cell-based or functional assay

F protein of RSV (hRSV strain Long LM-2) (hRSV strain Long), sequence (P12568 26-574): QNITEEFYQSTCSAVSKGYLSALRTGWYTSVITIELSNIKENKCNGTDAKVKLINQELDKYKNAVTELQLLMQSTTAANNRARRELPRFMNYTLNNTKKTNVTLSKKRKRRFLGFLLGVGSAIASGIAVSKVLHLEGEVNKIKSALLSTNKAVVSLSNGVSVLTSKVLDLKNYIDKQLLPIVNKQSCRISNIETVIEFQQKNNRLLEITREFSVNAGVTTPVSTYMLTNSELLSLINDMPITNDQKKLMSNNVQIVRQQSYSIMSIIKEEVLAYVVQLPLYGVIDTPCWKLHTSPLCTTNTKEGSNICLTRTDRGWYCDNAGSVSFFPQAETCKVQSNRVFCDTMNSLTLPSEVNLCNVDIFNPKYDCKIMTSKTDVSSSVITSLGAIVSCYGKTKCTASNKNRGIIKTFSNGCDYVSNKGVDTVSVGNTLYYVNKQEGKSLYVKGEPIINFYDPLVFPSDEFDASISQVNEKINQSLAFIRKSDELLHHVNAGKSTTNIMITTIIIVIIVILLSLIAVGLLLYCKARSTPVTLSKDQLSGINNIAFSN

Binder	IC50, neutralization of RSV infection, Long strain
RSV407 (VHH) EVQLVESGGGLVQAGGSLSISCAASGGSLSNYVLGWFRQAPGKEREFVAAINWRGDITIGPPNVEGRFTISRDNAKNTGYLQMNSLAPDDTAVYYCGAGTPLNPGAYIYDWSYDYWGRGTQVTVSSGGGGSGGGGSGGGGSEVQLVESGGGLVQAGGSLSISCAASGGSLSNYVLGWFRQAPGKEREFVAAINWRGDITIGPPNVEGRFTISRDNAKNTGYLQMNSLAPDDTAVYYCGAGTPLNPGAYIYDWSYDYWGRGTQVTVSSGGGGSGGGGSGGGGSEVQLVESGGGLVQAGGSLSISCAASGGSLSNYVLGWFRQAPGKEREFVAAINWRGDITIGPPNVEGRFTISRDNAKNTGYLQMNSLAPDDTAVYYCGAGTPLNPGAYIYDWSYDYWGRGTQVTVSSAAAEQKLISEEDLNGAAHHHHHH	0.0001 µM
building block of RSV407 (monovalent Nanobody) (VHH) VHH: EVQLVESGGGLVQAGGSLSISCAASGGSLSNYVLGWFRQAPGKEREFVAAINWRGDITIGPPNVEGRFTISRDNAKNTGYLQMNSLAPDDTAVYYCGAGTPLNPGAYIYDWSYDYWGRGTQVTVSS	0.05 to 0.1 µM
